Data from article PMC9894162.

Target: GST-NS5 (Zika virus, UniProt A0A1B0XTC8 2521-3423)
Assay: EMSA

B1: genomic Sox2 DNA duplex (dsDNA)
DNA 1: TCAGCAAGCGCCTGGGCGCCGAGTGGAAACTTTTG
DNA 2: CAAAAGTTTCCACTCGGCGCCCAGGCGCTTGCTGA
B1: binds.
